Source: patent US20050037477A1 (BOARD OF REGENTS OF THE UNIVERSITY OF OKLAHOMA, published 2005)

Biological target: T1, human C-terminal HPC-4 epitope-tagged C1β3Gal-T (core 1 β3-galactosyltransferase), full-length (human, UniProt Q9NS00 1-363)
T1 construct: mature; also called HPC4-tagged C1β3Gal-T; recombinant C1β3Gal-T
Test: Ni-NTA capture of His6-tagged wtCosmc-1 from Hi-5 and 293T cell extracts, C1β3Gal-T activity on the beads
Procedure: Capture of Human Cosmc-1 on Ni-NTA-Superflow-The Ni-NTA-Superflow beads (100 ml) (Qiagen, Inc.) equilibrated with the Ni-NTA washing buffer containing 50 mM NaH₂PO₄, 300 mM NaCl, 20 mM imidazole, 0.1% Triton X-100 (pH 7.8) were incubated with the cell extracts overnight at 4° C. on a rotator. The beads were washed 5 times with 1 ml of the washing buffer. One portion of the beads was removed for C1β3Gal-T enzyme assay. The bound material in the other portion was eluted with 100 ml of eluting solution (50 mM NaH₂PO₄, 300 mM NaCl, 250 mM imidazole, and 0.1% Triton X-100).
To confirm that Cosmc-1 and C1β3Gal-T can associate, we performed Western Blots on the HPC4-tagged C1β3Gal-T expressed in Hi5 cells and 293T cells with or without His₆-tagged wtCosmc-1 or mCosmc-1. When HPC4-tagged C1β3Gal-T was expressed in Hi5 cells in the absence or presence of wtCosmc-1 or mCosmc-1, a considerable amount protein was generated (FIG. 2G), but the enzyme lacked activity except when co-expressed with wtCosmc-1 (FIG. 2A-C). More importantly, HPC4-tagged C1β3Gal-T was present with His₆-tagged wtCosmc-1 when the latter was captured on Ni-NTA (FIGS. 2G,H). […] There was a slight amount of HPC4-tagged C1β3Gal-T detected in the Ni-NTA bound material in the absence of His₆-tagged wtCosmc-1 in 293T cells (FIG. 2H). […]

T1 sequence (Q9NS00 other isoform, or with tags, fused parts or gaps): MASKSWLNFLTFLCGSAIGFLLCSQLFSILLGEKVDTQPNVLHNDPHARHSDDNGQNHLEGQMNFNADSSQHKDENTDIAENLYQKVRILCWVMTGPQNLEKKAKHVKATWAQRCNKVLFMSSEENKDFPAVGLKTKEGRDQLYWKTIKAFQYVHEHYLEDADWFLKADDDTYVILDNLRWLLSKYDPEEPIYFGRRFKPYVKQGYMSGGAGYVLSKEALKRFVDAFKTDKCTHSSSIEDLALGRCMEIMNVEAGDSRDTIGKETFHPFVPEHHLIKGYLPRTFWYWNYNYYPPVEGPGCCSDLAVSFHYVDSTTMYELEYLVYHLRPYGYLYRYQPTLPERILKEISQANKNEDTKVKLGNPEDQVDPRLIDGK

- binding result: binds
B1: human C-terminal His6-tagged Cosmc-1 (wild-type; Core 1 β3-Gal-T Specific Molecular Chaperone-1) (other)
chain: MLSESSSFLKGVMLGSIFCALITMLGHIRIGHGNRMHHHEHHHLQAPNKEDILKISEDERMELSKSFRVYCIILVKPKDVSLWAAVKETWTKHCDKAEFFSSENVKVFESINMDTNDMWLMMRKAYKYAFDKYRDQYNWFFLARPTTFAIIENLKYFLLKKDPSQPFYLGHTIKSGDLEYVGMEGGIVLSVESMKRLNSLLNIPEKCPEQGGMIWKISEDKQLAVCLKYAGVFAENAEDADGKDVFNTKSVGLSIKEAMTYHPNQVVEGCCSDMAVTFNGLTPNQMHVMMYGVYRLRAFGHIFNDALVFLPPNGSDNDHHHHHH
notes: Co-expressed with C1β3Gal-T in Hi-5 insect cells or 293T cells and captured from Triton X-100 cell extracts on Ni-NTA; also called wtCosmc-1; wt-Cosmc-1
